We go through 19 molecules from US20020031761A1, “Binding moieties for human parvovirus B19” (priority 1998, published 2002).

In assay [1] the target is parvovirus B19 capsid proteins VP1-VP2 (Human parvovirus B19, UniProt P07299). Nature of the assay: Batch depletion of B19 capsid proteins from solution by immobilized peptide affinity media, supernatant ELISA. Particulars: peptide immobilized on formyl 750-M resin; 1 hour at room temperature; compared with blank media; ELISA at 5-minute time point. In kind it is binding. Here is the method: The two peptide ligands were immobilized on an aldehyde-functional methacrylate resin support (TosoHaas formyl 750-M; Montgomeryville, Pa.). The peptides were first weighed and dissolved into immobilization buffer (100 mM NaOAc, 150 mM NaCi, 0.1% Tween 20, pH 5.0). A sample of the dissolved peptides was taken for concentration analysis. The chromatography media was measured and washed twice with immobilization buffer. The media and peptide were mixed together and tumbled overnight at room temperature. After the reaction, the supernatant was analyzed for residual peptide and the resultant B19 affinity media was washed with deionized water, 1M NaCl, Tris buffer with 1M NaCl, and twice with PBS. The immobilization data are set forth below:
These parvovirus B19 affinity media were evaluated for the ability of the immobilization ligand to recognize and bind to parvovirus B19 capsid proteins VP1-VP2. Each of the prepared media was evaluated for its ability to deplete a solution of parvovirus B19 capsid proteins as compared to a blank control (media only). […] The capsid protein stock solution was prepared by diluting 30 μl of the purified capsid protein solution (Absorbance at 280 nm=2) with 320 μl of stabilizing buffer. […]
Each sample was analyzed with a standard ELISA for the presence or absence of B19 capsid proteins at ten-fold serial dilution into stabilizing buffer. […]
Background: ELISA stands for enzyme-linked immunosorbent assay.

The target of another assay is VP1-VP2 (Human parvovirus B19, UniProt P07299). Nature of the assay: Relative binding ELISA, constant phage against decreasing amounts of VP1-VP2. Particulars: among the 18 selected phage isolates. The protocol: (§1) Based on the ELISA data and the sequence similarities within each library, the 18 isolates (Tables 1-3) were selected and evaluated further with respect to their binding characteristics to VP1-VP2. Relative binding of each isolate was studied by ELISA. Each selected phage isolate, held at a constant amount, was contacted with decreasing amounts per well of VP1-VP2, the amounts coating each dextrin well varying from 2 μl down to 0.001 μl. Bound phage were detected as described before using polyclonal anti-phage antibody. […] Using VP1-VP2 at 1:10 dilution as an arbitrary point, a value for the signal was interpolated, and the relative binding strengths are reflected in Tables 1-3, above.

Assay [2] addresses T1, purified, recombinant parvovirus B19 capsid proteins VP1 and VP2 (VP1-VP2) (human parvovirus B19, UniProt P07299 1-781; P07299 1-554).
T1 construct: Surrogate target: partially purified/purified recombinant VP1 + VP2 preparation; Made by methods of US 5,498,413 or WO 91/12269
The assay can be described thus: phage ELISA; VP1-VP2 coated on dextrin plates, HRP anti-M13 detection. The protocol: (§2) From convergent screens of phage display libraries, eluted phage were propagated and 376 phage isolates were selected randomly and individually tested for binding to VP1-VP2 by standard ELISA techniques, using a polyclonal anti-phage antibody to detect bound phage. Briefly, VP1-VP2 (2 μl per well) was coated on dextrin plates, blocked with BSA, and individual phage isolates were added to the wells (50 μl, 10⁹ pfu per well). After washing, bound phage were incubated with the detection anti-phage antibodies (100 μl per well HRP-conjugated anti-M13 antibody in PBS-Tween (Pharmacia Inc.)). Wild type phage, displaying no non-phage peptide, were employed as controls. The bound antibody was detected by adding 100 μl per well of two-component TMB (tetramethylbenzidine; Kirkegaard & Perry).

Assay [3] has as its target T1, purified, recombinant parvovirus B19 …. Nature of the assay: phage ELISA, constant phage against decreasing VP1-VP2 coat; normalized signal interpolated at 1:10 dilution of VP1-VP2. The protocol:
as §2, §1

Positions of bridges follow the written chain, without caps; N, C: chain ends. No end group written: not given here.

As for “AEGTGDFFCSFWHGGCDDDPGPEGGGS (cysteine pairing not given here) [A01-TN8]”, the “depletion / clearing of B19 capsid proteins from solution” value in assay [1] is “able to effectively bind parvovirus B19 capsid proteins and clear them from solution”. In addition, the “ranking of relative binding strength to VP1-VP2” value with VP1-VP2 is reported as “two highest-ranking isolates”.

In the case of “AEGTGDFCWLWPAHSCHDPGPEGGGS (cysteine pairing not given here) [H03-TN09]”, the “depletion / clearing of B19 capsid proteins from solution” value in assay [1] is “able to effectively bind parvovirus B19 capsid proteins and clear them from solution”.

B1: TN7 isolate E11 (peptide, not shown: large carriers)
peptide: FCRFWYGCHP
modifications: disulfide 2-8 (inferred); also: displayed on M13 phage, coat protein fusion and flanking residues not given here
notes: Tested as phage isolate displaying the peptide (TN7 library); First template position printed as '-' (10 residues)
For B1, in assay [2], the ELISA signal came out at 0.6. Moreover, the relative binding in assay [3] was found to be 33.

B2: H03-TN9 phage isolate (peptide, not shown: large carriers)
peptide: FCWLWPAHSCH
modifications: disulfide 2-10 (inferred); also: displayed on M13 phage, coat protein fusion and flanking residues not given here
notes: Tested as phage isolate displaying the peptide (TN9 library); The synthetic peptide form is a separate molecule; also called TN9 isolate H03
B2: the ELISA signal in assay [2] stood at 0.8. Besides, the relative binding in assay [3] was found to be 85.

B3: TN9 isolate F01 (peptide, not shown: large carriers)
peptide: LCPAHWQFWCD
modifications: disulfide 2-10 (inferred); also: displayed on M13 phage, coat protein fusion and flanking residues not given here
notes: Tested as phage isolate displaying the peptide (TN9 library)
As for B3, the ELISA signal in assay [2] is 0.5.

B4: TN8 isolate D06 (peptide, not shown: large carriers)
peptide: HFCHFWFGGCPH
modifications: disulfide 3-10 (inferred); also: displayed on M13 phage, coat protein fusion and flanking residues not given here
notes: Tested as phage isolate displaying the peptide (TN8 library)
With B4, the ELISA signal in assay [2] turned out to be 1.3. For the same molecule, the relative binding in assay [3] was 40.

B5: A01-TN8 phage isolate (peptide, not shown: large carriers)
peptide: FFCSFWHGGCDD
modifications: disulfide 3-10 (inferred); also: displayed on M13 phage, coat protein fusion and flanking residues not given here
notes: Tested as phage isolate displaying the peptide (TN8 library); The synthetic peptide form is a separate molecule; also called TN8 isolate A01
Take B5: the ELISA signal in assay [2] came to 1.6. Besides, the relative binding in assay [3] was 52.

B6: TN7 isolate D11 (peptide, not shown: large carriers)
peptide: LFCSFWYNCDA
modifications: disulfide 3-9 (inferred); also: displayed on M13 phage, coat protein fusion and flanking residues not given here
notes: Tested as phage isolate displaying the peptide (TN7 library)
In the case of B6, in assay [2], the ELISA signal came to 0.9. In assay [3], the relative binding is 35.

B7: TN7 isolate F12 (peptide, not shown: large carriers)
peptide: LFCSFWYNCDD
modifications: disulfide 3-9 (inferred); also: displayed on M13 phage, coat protein fusion and flanking residues not given here
notes: as for B6
B7: the ELISA signal in assay [2] amounted to 0.9.

B8: TN8 isolate A05 (peptide, not shown: large carriers)
peptide: AFCHFWFHGCDD
modifications: disulfide 3-10 (inferred); also: displayed on M13 phage, coat protein fusion and flanking residues not given here
notes: as for B4
Turning to B8, the ELISA signal in assay [2] is 1.3. Moreover, the relative binding in assay [3] amounted to 30.

B9: TN7 isolate B11 (peptide, not shown: large carriers)
peptide: FFCALWPSCHH
modifications: disulfide 3-9 (inferred); also: displayed on M13 phage, coat protein fusion and flanking residues not given here
notes: as for B6
In the case of B9, the ELISA signal in assay [2] came to 0.5. The relative binding in assay [3] amounted to 31.

B10: TN9 isolate D01 (peptide, not shown: large carriers)
peptide: FCWLWPSSDCF
modifications: disulfide 2-10 (inferred); also: displayed on M13 phage, coat protein fusion and flanking residues not given here
notes: as for B3
Take B10: the ELISA signal in assay [2] came to 0.7. In addition, in assay [3], the relative binding stood at 36.

B11: TN7 isolate C11 (peptide, not shown: large carriers)
peptide: FFCQYWYNCD
modifications: disulfide 3-9 (inferred); also: displayed on M13 phage, coat protein fusion and flanking residues not given here
notes: Tested as phage isolate displaying the peptide (TN7 library); Last template position printed as '-' (10 residues)
With B11, in assay [2], the ELISA signal came out at 0.7. Moreover, the relative binding in assay [3] stood at 26.

B12: TN7 isolate A07 (peptide, not shown: large carriers)
peptide: FFCGFWHDCHP
modifications: disulfide 3-9 (inferred); also: displayed on M13 phage, coat protein fusion and flanking residues not given here
notes: as for B6
Consider B12, for which, in assay [2], the ELISA signal is 0.7. For the same molecule, in assay [3], the relative binding is 27.

B13: TN9 isolate E03 (peptide, not shown: large carriers)
peptide: FCHLWWPFQCA
modifications: disulfide 2-10 (inferred); also: displayed on M13 phage, coat protein fusion and flanking residues not given here
notes: as for B3
Turning to B13, the ELISA signal in assay [2] was determined as 0.8. Moreover, the relative binding in assay [3] came to 40.

B14: TN9 isolate A06 (peptide, not shown: large carriers)
peptide: FCQLWWPFQCA
modifications: not fully specified (bridges); printed as Phe-Cys-Gln-Leu-Trp-Trp-Pro-Phe-Gln-Cys-Ala; cysteine pairing not given here
notes: Tested as phage isolate (TN9 library)
Take B14: the ELISA signal in assay [2] amounted to 0.7.

B15: TN7 isolate H09 (peptide, not shown: large carriers)
peptide: LFCRFWYNCSA
modifications: disulfide 3-9 (inferred); also: displayed on M13 phage, coat protein fusion and flanking residues not given here
notes: as for B6
Turning to B15, in assay [2], the ELISA signal was 0.6.

B16: TN7 isolate A12 (peptide, not shown: large carriers)
peptide: FSCLWFPFCPD
modifications: disulfide 3-9 (inferred); also: displayed on M13 phage, coat protein fusion and flanking residues not given here
notes: as for B6
On to B16, for which, in assay [2], the ELISA signal amounted to 0.5. In assay [3], the relative binding worked out at 28.

B17: TN7 isolate B12 (peptide, not shown: large carriers)
peptide: LFCHFWYNCDF
modifications: disulfide 3-9 (inferred); also: displayed on M13 phage, coat protein fusion and flanking residues not given here
notes: as for B6
For B17, in assay [2], the ELISA signal was 0.7. Also, the relative binding in assay [3] amounted to 29.
